Results published in patent US4740588A, “Novel substrate peptides” (Washington University, priority 1986, dated 1988).
Values belong to the molecule of their own block, whether it stands above or below them. Residues, ends and D or L forms follow the SMILES beside them.

Columns and labels:
[1] = target: T1, N-myristoylglycylpeptide synthetase (N-myristoyl transferase) (Saccharomyces cerevisiae, UniProt P14743); experiment: Assay for N-myristoylglycylpeptide synthetase activity, crude membrane fractions from yeast; assay type: biochemical; conditions: for activity as substrate for myristoylglycylpeptide synthetase: result in words
T1 construct: using crude membrane fractions from yeast with changes as indicated; endogenous in cells; host or cells: S. cerevisiae strain JR153 (protease-deficient), crude membrane pellet of the cell lysate
T1 sequence (P14743 1-455): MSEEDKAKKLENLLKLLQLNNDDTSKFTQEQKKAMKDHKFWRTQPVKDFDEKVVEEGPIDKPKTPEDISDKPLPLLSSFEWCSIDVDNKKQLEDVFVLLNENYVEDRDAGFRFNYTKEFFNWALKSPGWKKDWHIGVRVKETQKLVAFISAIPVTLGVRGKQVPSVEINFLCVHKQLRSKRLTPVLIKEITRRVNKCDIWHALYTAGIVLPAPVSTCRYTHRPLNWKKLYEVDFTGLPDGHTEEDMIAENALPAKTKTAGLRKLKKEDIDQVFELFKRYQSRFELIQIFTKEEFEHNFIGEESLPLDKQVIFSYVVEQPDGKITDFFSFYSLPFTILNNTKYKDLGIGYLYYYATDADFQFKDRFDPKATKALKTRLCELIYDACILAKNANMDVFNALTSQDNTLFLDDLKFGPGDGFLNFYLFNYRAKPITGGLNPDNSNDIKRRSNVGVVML
Procedure: The synthetic octapeptide […]was used to identify a unique enzymatic activity which transfers myristic acid to the amino terminal glycine of this and other peptides. […] The enzyme activity was determined in an in vitro assay which measures the transfer of [^3 H]-myristic acid to the acceptor peptide. The transfer reaction is dependent on adenosine triphosphate (ATP) and coenzyme A (CoA). The enzymatic product was then identified by high performance liquid chromatography (HPLC) by co-elution with a chemically synthesized myristoyl peptide standard. […] Both contained M-myristoyl glycine.
Preparation of yeast extract for the assay of N-myristoylglycylpeptide synthetase activity. Yeast cultures were grown as described above to O.D. 660 nm of 1 to 3. Cells from 40 ml of culture were collected by centrifugation at 4° C. at 7600×g for 10 minutes. The supernatant was decanted, the cell pellet was resuspended by pipetting into 1 ml of cold 10 mM Tris, pH 7.4, transferred to a 1.5 ml conical polypropylene centrifuge tube, and the cells were then repelleted at 4° C. at 7600×g for 10 minutes. Cells were resuspended in 400 μl of cold assay lysis buffer (10 mM Tris, pH 7.4, 1 mM dithiothreitol,0.1 mM ethylene glycol-bis(β-aminoethyl ether) N,N,N',N'-tetraacetic acid (EGTA), 10 μg/ml Aprotinin) by pipetting. Approximately 400 μl of 0.5 mm glass beads were added to the resuspended cells, and the cells were lysed by vortexing as described above for lysis of radioactively labeled cells. After allowing the beads to settle, the lysate was collected and cellular debris was removed by centrifugation at 4° C. at 1000×g for 10 minutes. The supernatant was then centrifuged at 4° C. at 45,000 rpm for 30 minutes in a Beckman 75 Ti rotor. The supernatant was removed, and the crude membrane pellet was resuspended by pipetting into 400 μl of cold assay lysis buffer. Aliquots of the three cellular fractions were either assayed immediately or stored at -60° C. The activity associated with crude membranes was stable at -60° C. for at least 3 months. Protein was determined by the method of Peterson, Anal. Biochem. 83, 346-356 (1977).
Assay for N-myristoylglycylpeptide synthetase activity. [^3 H]Fatty acyl CoA was synthesized enzymatically and added to the incubation as follows. […] Typically, 40% to 50% of the [^3 H]fatty acid was converted to its CoA ester by this procedure as measured by determining the radioactivity remaining in the reaction after acidification with 6 N HCl to pH 2.0 and extraction 6 times with 5 volumes of heptane, a modification of the method of Hosaka et al., Meth. […]

[2] = substrate: CC(C)C[C@H](NC(=O)[C@@H]1CCCN1C(=O)[C@H](Cc1ccc(O)cc1)NC(=O)[C@H](CO)NC(=O)[C@H](C)NC(=O)[C@H](CCC(=O)O)NC(=O)[C@H](CC(N)=O)NC(=O)CN)C(N)=O; experiment: Peptide substrate specificity (Km, Vmax) of partially purified yeast myristoylating enzyme; assay type: biochemical, S. cerevisiae strain JR153; conditions: other: peptide as acyl acceptor, 1 μCi [3H]-myristic acid per tube, 30.0 °C
Procedure: (§1) Assay for N-myristoylglycylpeptide synthetase activity. [^3 H]Fatty acyl CoA was synthesized enzymatically and added to the incubation as follows. The acyl CoA synthetase reaction consisted of (per one assay tube): 0.5 μCi of [^3 H]myristic acid; 25 μl of 2× assay buffer (20 mM Tris, pH 7.4, 2 mM dithiothreitol, 10 mM MgCl2, 0.2 mM EGTA); 5 μl of 50 mM ATP in distilled water, adjusted to pH 7.0 with NaOH; 2.5 μl of 20 mM lithium CoA in distilled water; 15 μl of 1mU/μl of Pseudomonas acyl CoA synthetase (Sigma) in 50 mM N-2-hydroxyethylpiperazine-N'-2-ethane sulfonic acid, pH 7.3; 2.5 μl of distilled water. The reaction was allowed to proceed for 20 minutes at 30° C. Typically, 40% to 50% of the [^3 H]fatty acid was converted to its CoA ester by this procedure as measured by determining the radioactivity remaining in the reaction after acidification with 6 N HCl to pH 2.0 and extraction 6 times with 5 volumes of heptane, a modification of the method of Hosaka et al., Meth. […] The assay was initiated by the addition of 10 μl of yeast cell extract (typically 50 μg of protein) per tube, followed by incubation at 30° C. for 10 min. The assay was terminated by the addition of 110 μl of methanol and 10 μl of 100% trichloracetic acid (w/v) per tube, followed by cooling ten minutes on ice. Precipitated protein was removed by centrifugation at 8000×g for 3 minutes in a tabletop Eppendorf centrifuge. […] One minute fractions were collected and the radioactivity in each fraction determined by liquid scintillation counting. [^3 H]-Myristoyl-[sequence]eluted at 24 minutes, while [^3 H]palmitoyl-[sequence]eluted at 30 minutes.
(§2) The peptide substrate specificity of the enzyme was tested under the assay conditions described in Example 2 but using 1 μCi of [^3 H]-myristic acid per assay tube. The yeast enzyme used in this example was partially purified from a crude homogenate of the cultured yeast cells by fractionation with 51-70% (NH4)2 SO4 followed by ion exchange column chromatography with DEAE-Sepharose® CL-6B (Pharmacia) and affinity chromatography with CoA-agarose affinity matrix (Pharmacia).

[3] = substrate: C[C@H](NC(=O)CN)C(=O)N[C@@H](CCC(N)=O)C(=O)N[C@@H](C)C(=O)N[C@@H](C)C(=O)N[C@@H](C)C(=O)N[C@@H](CCCNC(=N)N)C(=O)N[C@@H](CCCNC(=N)N)C(N)=O; experiment: as above; assay type: biochemical, S. cerevisiae strain JR153; conditions: other: peptide as acyl acceptor, 1 μCi [3H]-myristic acid per tube, 30.0 °C
Procedure: as §1, §2

[4] = substrate: C[C@H](NC(=O)[C@H](C)NC(=O)[C@H](C)NC(=O)[C@H](C)NC(=O)[C@H](CC(N)=O)NC(=O)CN)C(N)=O; experiment: as above; assay type: biochemical, S. cerevisiae strain JR153; conditions: other: peptide as acyl acceptor, 1 μCi [3H]-myristic acid per tube, 30.0 °C
Procedure: as §1, §2

[5] = substrate: C[C@H](NC(=O)[C@H](C)NC(=O)[C@H](C)NC(=O)[C@H](CCC(N)=O)NC(=O)CN)C(=O)N[C@@H](C)C(=O)N[C@@H](CCCNC(=N)N)C(=O)N[C@@H](CCCNC(=N)N)C(N)=O; experiment: as above; assay type: biochemical, S. cerevisiae strain JR153; conditions: other: peptide as acyl acceptor, 1 μCi [3H]-myristic acid per tube, 30.0 °C
Procedure: as §1, §2

[6] = substrate: C[C@H](NC(=O)[C@H](C)NC(=O)[C@H](C)NC(=O)[C@H](CO)NC(=O)CN)C(=O)N[C@@H](C)C(=O)N[C@@H](CCCNC(=N)N)C(=O)N[C@@H](CCCNC(=N)N)C(N)=O; experiment: as above; assay type: biochemical, S. cerevisiae strain JR153; conditions: other: peptide as acyl acceptor, 1 μCi [3H]-myristic acid per tube, 30.0 °C
Procedure: as §1, §2

[7] = substrate: C[C@H](NC(=O)[C@H](C)NC(=O)[C@H](CC(N)=O)NC(=O)CN)C(=O)N[C@@H](CO)C(N)=O; experiment: as above; assay type: biochemical, S. cerevisiae strain JR153; conditions: other: peptide as acyl acceptor, 1 μCi [3H]-myristic acid per tube, 30.0 °C
Procedure: as §1, §2

[8] = substrate: C[C@H](NC(=O)[C@H](C)NC(=O)[C@H](CCC(=O)O)NC(=O)[C@H](CC(N)=O)NC(=O)CN)C(=O)N[C@@H](C)C(=O)N[C@@H](CCCNC(=N)N)C(=O)N[C@@H](CCCNC(=N)N)C(N)=O; experiment: as above; assay type: biochemical, S. cerevisiae strain JR153; conditions: other: peptide as acyl acceptor, 1 μCi [3H]-myristic acid per tube, 30.0 °C
Procedure: as §1, §2

[9] = substrate: C[C@H](NC(=O)[C@H](C)NC(=O)[C@H](CCCNC(=N)N)NC(=O)[C@H](CC(N)=O)NC(=O)CN)C(=O)N[C@@H](C)C(=O)N[C@@H](CCCNC(=N)N)C(=O)N[C@@H](CCCNC(=N)N)C(N)=O; experiment: as above; assay type: biochemical, S. cerevisiae strain JR153; conditions: other: peptide as acyl acceptor, 1 μCi [3H]-myristic acid per tube, 30.0 °C
Procedure: as §1, §2

[10] = substrate: C[C@H](NC(=O)[C@H](C)NC(=O)[C@H](Cc1ccccc1)NC(=O)[C@H](CC(N)=O)NC(=O)CN)C(=O)N[C@@H](C)C(=O)N[C@@H](CCCNC(=N)N)C(=O)N[C@@H](CCCNC(=N)N)C(N)=O; experiment: as above; assay type: biochemical, S. cerevisiae strain JR153; conditions: other: peptide as acyl acceptor, 1 μCi [3H]-myristic acid per tube, 30.0 °C
Procedure: as §1, §2

activity as substrate for myristoylglycylpeptide synthetase [1]: inactive
Molecule: NCC(=O)N[C@@H](CC(N)=O)C(N)=O [GN, Gly-Asn] (H-Gly-Asn-NH2)

Molecule: GSSKSPKDPS
Rate of Myristoylpeptide Synthesis ([1]; Test 3: 1 mM test peptide added as competitor, 18 μM GlyAsnAlaAlaAlaAlaArgArg substrate, control 26.7): 27.4 DPM × 10^3 /10 min
activity as substrate for myristoylglycylpeptide synthetase [1]: inactive

activity as substrate for myristoylglycylpeptide synthetase [1]: inactive
Molecule: N=C(N)NCCC[C@H](NC(=O)[C@@H]1CCCN1C(=O)CN)C(=O)N1CCC[C@H]1C(N)=O [GPRP, Gly-Pro-Arg-Pro] (H-GPRP-NH2)

B1: Yeast Myristoylating Enzyme (Saccharomyces cerevisiae S288C) (protein)
chain: MSEEDKAKKLENLLKLLQLNNDDTSKFTQEQKKAMKDHKFWRTQPVKDFDEKVVEEGPIDKPKTPEDISDKPLPLLSSFEWCSIDVDNKKQLEDVFVLLNENYVEDRDAGFRFNYTKEFFNWALKSPGWKKDWHIGVRVKETQKLVAFISAIPVTLGVRGKQVPSVEINFLCVHKQLRSKRLTPVLIKEITRRVNKCDIWHALYTAGIVLPAPVSTCRYTHRPLNWKKLYEVDFTGLPDGHTEEDMIAENALPAKTKTAGLRKLKKEDIDQVFELFKRYQSRFELIQIFTKEEFEHNFIGEESLPLDKQVIFSYVVEQPDGKITDFFSFYSLPFTILNNTKYKDLGIGYLYYYATDADFQFKDRFDPKATKALKTRLCELIYDACILAKNANMDVFNALTSQDNTLFLDDLKFGPGDGFLNFYLFNYRAKPITGGLNPDNSNDIKRRSNVGVVML
notes: partially purified from a crude homogenate of the cultured yeast cells; endogenous in cells; host or cells: S. cerevisiae strain JR153
Km [2]: 2300 µM
Km [3]: 1400 µM
Km [4]: 1300 µM
Km [5]: 70 µM
Km [6]: 1700 µM
Km [7]: 900 µM
Km [8]: 1800 µM
Km [9]: 400 µM
Km [10]: 60 µM
